A short description of this series: label from the status in PepcDB records.
Take “MLTLLNLLSAVTLLVWGTHIVRTGILRVFGSNLRRIISQNMDKRPLAFIAGILVTAMVQSSNATAMLVTSFVGQGLMAMTPALAIMLGADVGTALMARVLTFDLSWLSPLLIFLGVIFFLSRKQTRAGQLGRVGIGLGLIILALELIVQAAAPITQAQGVKVLFASLTGDIMLDALVGAMFAMISYSSLAAVLLTATLAGAELISLPVAIGLVVGANIGSGLLAFISTSMQNAAGRRVALGSLLYKLIGLVLIIPVLHPLVAWMDSLSFSPQELVIGFHLLYNTLRCLIMLPTVKPMGRLCNALLPEREIGNGQVRPRHLDASALETPSLALANAARETLRLGDIVDSLLEAMLGALRGTQTALPQQVRALGEDAEALYSAIKLYLAQMSREDLSEQDNRRWAEIIELSINLKLACDLIERMLRKVQQQKTSQRREFSQVGLEELTGLQEQLLANLRLGLSVFLSADPESARLLLREKRRFRAQERRLAHAHVSRLQRKVVQSIETSSLHLELIADMKRLNSLFCSSAYVVLGGSDTGGLMLDSVPDEARLP”: the protein production result is “failed”.

As to “MDGTPGHNAINRLQLVATLAEREVMRYTPAGVPIVNCLLSYSGQAMEAQAARQVEFSIEALGAGKMASVLDRIAPGTVLECVGFLARKHRSSKALVFHISGCNVFVKDLEHHHHHH”, the protein production result was “failed”.

“MDNEMNYGSDYKFIPATSIESGHGIEVLRDLFCYTIQIVNICFVGNPETNDFVLVDAGMPKCANEIISIAKDRFGTNSRPKAIILTHGHFDHVGGIIELIKHWDVHVYAHQMEIPFLTGQQSYPEPDPTVEGGMVAKMSPLFPNEPIDLGNNVKALPTDGTVPHMPEFRWIHTPGHTPGHISLFREKDRTLIAGDAFVTVKQEYLYKVITQEQEISGPPRYLTTDWKAAKESVLKLEKLKPLTAVTGHGIPMSGELLSTSLKTLVQEFDKIAVPDYGKYIDKKMHLEHHHHHH”: the protein production result is recorded as “not failed”.

In the case of “MQLESLYQFLYSVVMSYLVSLKYVSFVLISVILVFRKIIRTVKGGRFRRYSIFIPPILYILFSIAVSYGTSLLGIVLSLIAFVFGIYISFHTTRSIVFFSKNNILYYKRPGWVVAIWSLAFLTRLALILFFPSFNGDLFTVLLFLASGLIIGESFWIVRKNREILSTVRMPKIHL”, the protein production entry was “failed”.

Regarding “MEGERMNAFPSTMMDEELNLWDFLERAAALFGRKEVVSRLHTGEVHRTTYAEVYQRARRLMGGLRALGVGVGDRVATLGFNHFRHLEAYFAVPGMGAVLHTANPRLSPKEIAYILNHAEDKVLLFDPNLLPLVEAIRGELKTVQHFVVMDEKAPEGYLAYEEALGEEADPVRVPERAACGMAYTTGTTGLPKGVVYSHRALVLHSLAASLVDGTALSEKDVVLPVVPMFHVNAWCLPYAATLVGAKQVLPGPRLDPASLVELFDGEGVTFTAGVPTVWLALADYLESTGHRLKTLRRLVVGGSAAPRSLIARFERMGVEVRQGYGLTETSPVVVQNFVKSHLESLSEEEKLTLKAKTGLPIPLVRLRVADEEGRPVPKDGKALGEVQLKGPWITGGYYGNEEATRSALTPDGFFRTGDIAVWDEEGYVEIKDRLKDLIKSGGEWISSVDLENALMGHPKVKEAAVVAIPHPKWQERPLAVVVPRGEKPTPEELNEHLLKAGFAKWQLPDAYVFAEEIPRTSAGKFLKRALREQYKNYYGGA”, the protein production result was “not failed”.

With “DRTAILGGTFTPIHNGHRALLHKAFQTASHDGSGDGHVIVGLTSPELATETRSDPTHVKQLGAYDDRRSALASELDQLGEPYTATYEIVRLDDTQGPAATRADVDALVASPEAKAQRRAYELNQQRRESGLHPLEIHTPPFVVAEDGTRISSTRIRNGEIDVHGRLLD”, the protein production entry is on record as “failed”.

Turning to “MVVYPNEEAENGSLRFVDFVNKTFALLGNSPIKKFSLRHEPRLYCVDAYLRWIFTAMEQERGLLELHLYADRYYYPVGIERELFTSNTLVKLTLSGRYDFQVETVFLPALKSLSLSSSFEIGFDKYCNLLDGFPALEELYIREAVSELSNALLSSGTFVKCASIKRLVVFTDCPKFKEDEDHQEPCFIAPSLVYLDYSSYLSENYDLIDLNSLVEARLNLRLLESFNNYGSSDNDGDVYGWDFNVPFDYYGDVTNLVAGITNITTLHLSPDSLEVFHFRCKSIPVFNNLLLNLSIESNKRNGWQVMPLLIRSCPNLHTLVIKGFVHRVTSKCGDACACIPKKQRKIGKKEEISEYGGSFQELEQMRHFLGKLERLETVKVGVHAENNNNNEFLRANLLTLPRLSSKCNNIQFI”, the protein production entry is “failed”.

In the case of “MSGHKCYSWELQDRFAQDKSVVNKMQQKYWETKQAFIKATGKKEDEHVVASDADLDAKLELFHSIQRTCLDLSKAIVLYQKRICFLSQEENELGKFLRSQGFQDKTRAGKMMQATGKALCFSSQQRLALRNPLCRFHQEVETFRHRAISDTWLTVNRMEQYRTEYRGALLWMKDVSQELDPDLYKQMEKFRKVQTQVRLAKKNFDKLKMDVCQKVDLLGASRCNLLSHMLATYQTTLLHFWEKTSHTMAAIHESFKGYQPYEFTTLKSLQDPMKKLVEKEGKKTSWRENREAVAPEPRQLISLEDEHKDSSTYKTEEGTSVLSSVDKGSVHDTCSGPIDELLDGKPEEACLGPTAGTPEPESGDKDDLLLLNEIFSTSCLDEGEFSREWAAVFGDDRLKEPAPMGAQGEPDPKPQIGSGFLPSQLLDQNMKDLQASLQEPAKAASDLTAWFSLFADLDPLSNPDAVGKTDKEHELLNA”, the protein production result is “failed”.

With “MATFSLGKHPHVELCDLLKLEGWSESGAQAKIAIAEGQVKVDGAVETRKRCKIVAGQTVSFAGHSVQVVA”, the protein production entry is listed as “not failed”.

Turning to “MNNLKKYTLVAVFVFLTAVCFQHPGITSAATTITIDPDATYQTIEGWGASICWWGNQIGRWSPDNRNRLIEKIVSPTDGLGYNIFRYNIGGGDNPGHNHMRDYADIQGYQNADRSWNWNADAAQRAVLTRLIERGRYYGSEIILEAFSNSPPYWMTKSGCASGTSDGSNNLRDDCYDDFADYLTEVVKHFRDAWGITFRTLEPMNEPNSDWWKAGGRQEGCSFSYANQQRIIKEVGEKLKAKGLTGTTVSAADEASIDTALEGLQSYDATTLSYMSQLNVHSYFGSKRAQLRDLAKSKGLRIWQSESGPLSFNGDMADSCIMLSKRIVTDLKELQCVAWLDWQIIDGGNWGSIYVDDASQTFTLTEKFYMHANYSRFIRPGYTIIGANNEKTIAAISPDKKKLVIVATNDNKSSSANYTFNLTRFSGVNSTVEVYRTSPSLSLAKSIITASNKIVSDTLPPYSINTYVITLDGGVESVPAVGLQSYNYPNRYVRHADFDARIDENVTPLEDSQWRLVPGLANSSEGYVSIQSVNYPGYYLRHWDYDFRLDKNDGTTIFAEDATFKLVPGLADPSCVSFQSYNYPDRYIRHYGYLLKLERISTDLDRQDATFLIISDDSPGPITDSGYIMAYFKQAPGEYGLNLCYSTDGLHWRNINDGKPVLYAQMGTKGIRDPYIFRKQDGKFGIVATDMLGTNWGDTSQYIHYWESEDLINFTERLIKVHNKSNMHAWAPEVFYDENRKQYGIYWAGNTDYNRIYVNYTTDFDTVSDCQVFFDPGYDVIDAHIVSDKGMYYLFFKDERASGKAIKVARSSSLTPNSFTVFTPNFITSPNTEGPFVFKDNNSDSWYMYVDIYSNNGIFECWKTNDLNALSWTKVTGISVPPGVRHGSVVKVNRWELETAISRKVVTPPAPTPPPVLKGDVNADGVINSSDIMVLKRFLLRTITLTEEMLLNADTNGDGAVNSSDFTLLKRYILRSIDSFPV”, the protein production result was “failed”.

As for “MSEGTLFVFTCDRPNGSSVIMCPGGGFLKTNLENEGIDFAEWFTKLGITYIVFKYRMPHGNPDVPEQDTRLALKVVREKFPEFCDKLGVMGASIGGYLATFSATLLPDDEKPDFQILMYPVVSVDDRLTHFPCRERMFGHSYSPDKMEQYSPIEHITSGTPAAFIVAAADDAVVSPLNGIMYAARLQKADIPISLHIYPAGGHGFGYNDSFVYKQEWLQELGEWLAKLLEHHHHHH”, the protein production result was “failed”.

“MKVVVVDGGGLMGVETALCVRDHGHEVALVQAPGDPHAPLSDEVAEALRGCSVLVDLAHQPSVDIGTLAEDHGLVVDEAALVDSWAGSTGALLRAGAAAGVRHHVCLSVVGVDRIGREGVFRALRNREAMARRSGIPYSILRATQTFDAAEDIATAATEDWIVWVPPAEVRPVSLTDVATLLAHTAVTRPVNGVREIAGPEQFRLDAFVRTALLTEAEYRQVRTDALSPFYGARLRPRDLLPGPDAFIARTTYREWFTGRPAPDTTS”: the protein production result was “failed”.

In the case of “MYSYADRIRAVALYIKLGLRVRATIRQLGYPTKNALKGWYQHYLKHQDLPASQAPRAPKYSLQQRQVAIAHYLAHDRCIAATMRALGYPGRGTLTAWVRQDCPDTCKSRVGRSWPATKPDALMCEGVVQLCARRSSAQQIADKLGVCRGTLYNWKNQLLGPCAPASMKHSPKRSPVLDEAALRRQVESLRQDVRRLKIERELLKQAHEILKNGADIDLHRLANKDKAVLVEALHGQYELPELLSLVGLARSSYFYHRARLKLADKYVDLRRSITEIFDNNYRCYGYRRVQASLLKECTGISEKVVRRLMKQEGLIVAKPKRRRYNSYLGEIGAAPQNLINRDFRAAAPNEKWLTDITELQIPAGKVYLSPVIDCFDGLVVSWSIGTHPNAHLVNTMLDAAIDAVQGSESRPVIHSDRGAHYRWPGWLSRVHDAKLTRSMSRKGCSPDNAACEGFFGRLKMELFYPNNWQSTTIEQFIEAVDAYIRWYNEKRIKVSLGRLSPVEYRHKLGLAA”, the protein production result was “failed”.

As for “MLTTLQNIMKLPNEIDEYLASRNFSENTRSNYHYDLVSLQAFFEDKSLTTENLELYKIQISNLSPAAQRRKISSANQYLLFLYQRQKVDQYFKIKQVVQKKSQTAQSYHPMIKEFPEFYGPLTCPGQFLALLILEFGLNFAEIQKLKWENFNWNFKYLTIEKAGIKRVLPIREKFAIRVKAINNADELFAKSRQFLYTELKKFTNYSSKEIREQYILHQVKAGKSIYELATLLGLTTITTLEKYYR”, the protein production result was “failed”.

For the sequence “MENLKNVAPIEDFNWDAYENGEAVTSASHEDLEKAYDGTLNKVNDREVVDGTVIAMNKREVVVNIGYKSDGIIPLNEFRYNPDLKVGDTVEVYIENQEDKKGQLVLSHRKARATRSWDRVNAALENEEIIKGFIKCRTKGGMIVDVFGIEAFLPGSQIDVKPIRDYDVFVGKTMEFKVVKINQEFKNVVVSHKALIEAELEQQKKEIIGKLEKGQVLEGTVKNITSYGVFIDLGGVDGLIHITDLSWGRVSDPKEVVELDQKLNVVILDFDDEKKRIALGLKQLTPHPWDALDTDLKVGDKVKGKVVVMADYGAFIEIATGVEGLIHVSEMSWSQHLRSAQDFMKVGDEVEAVVLTLDREERKMSLGIKQLKQDPWETIEEKYPVGSKHTAKVRNFTNFGVFVEIEEGVDGLIHISDLSWTKKVKHPSEFTQIGADIEVQVLEIDKENRRLSLGHKQLEENPWDVFETVFTVGSVHEGTIIEMLDKGAVVALPYGVEGFATPKHLVKEDGSQAQLDEKLEFKVIEFNKDAKRIILSHSRIFEDVAKAEERAEKKAASGAKKSSNNKREDAPMIQNQAASTTLGDIDALAALKEQLEGKKLEHHHHHH”, the protein production result is “not failed”.

As for “MFFVNRRLIKRVFLGFAVIALLLPLVLKQSFEITAEVIVQSKKLSQTDANTVLAPDSDKFIPPSLADMETESNILRSPTLIRDTIDQLRREGQFGGSEGLLTRLIVKPIRNGLIDPLRNHVINPVRGFFGLAVDPVRDTSLDAFTDQAVKDLKIGTLPGSNVISIVYASPNAAEGTRFVERLLANYLKNRQDLQSNELPEAFYEQKKAQYQSRLDDLEGKRQALLEAAHASDPKEEITFRLNAINTEEQSLNGYRDQALENQRRLDYLQKNLAAARKAGLTDYTFPFAFANTVDNVAYEDREIKQLGEQLTNLVSQYGTTADTYRADSVPMQQQREQIVRARAQFLKVVENRVRERSSDLQITQSVIAQKTARINDYKARVRDLQEVLSKLRQLDTEIDALHKAFFTYTQRYEESRGERLISGELSNARVLSQPYEPSEAAFPKPMLIIPLGLLTGLLLAIALGYVYEFFDHRFKHPAQVSDHLGLPVLMVLNAVEQPQVNPYPRWTWRWAWHWAKQ”, the protein production result was “failed”.

Consider “MSMIRLTVEETNLLSIYNEGGKRALIENVNAALPYMDADMRELAKRTLSKVDALTEAEFAELPIYAADEV”, for which the protein production result is on record as “failed”.

The record behind these values is a protein production outcome set (Wang et al. 2014).
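Further: failed if final PepcDB status was selected cloned or expressed and not failed if soluble or beyond.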
